Measured values: paper PMC10231827

Legend:
[1] = target: S2P.OmiBA1-1208.H8 (SARS CoV-2 (Omicron BA.1)); assay: SEC
[2] = target: hACE2-Fc (human) (UniProt Q9BYF1); assay: BLI; ACE2-Fc (10 ug/ml in kinetic buffer) captured on anti-human IgG Fc capture (AHC) biosensors, S2P glycoproteins as analyte; 30°C; association 300 s, dissociation 300 s; 1:1 binding model

Substance	percent dissociated to a lower-order form after freeze-thaw [1]	Kd [2]	Req [2]	koff [2]	kon [2]
S2P.OmiBA1-1208.H8 (domain or fragment)	15%	–	–	–	–
S2P.OmiBA1-FHA (domain or fragment)	–	0.641 nM	0.35 nm	0.00027 s⁻¹	420000 M⁻¹ s⁻¹
